Results from patent US20220088118A1 (Bicycle, published 2022).
Numbered stars: 1 amine (or outer) side, 2 acyl side, 3 side chain; on linkers, the order of the positions; unused ones are H or OH. Bridge positions count the residues as written; N and C are the ends. Ends that are not written are not given here. TATA = O=C(CC[*:1])N1CN(C(=O)CC[*:2])CN(C(=O)CC[*:3])C1

The binders below were run against T1, human carbonic anhydrase IX (human, UniProt Q16790 38-414) (assay: competition fluorescence polarisation, fluorescent ligand (SEQ ID NO: 18)-Sar6-K(FI)).

Row | Binder | Ki
1 | ACVECWADGWVNCA (linker 2-5-13 via TATA) [61-29-00-N001] | 129 nM
2 | ACTDCIWVDGWMCA (linker 2-5-13 via TATA) [61-28-00-N001] | 442 nM
3 | ACGRCTWVDGWICA (linker 2-5-13 via TATA) [61-27-00-N001] | 1610 nM
4 | ACANNCIWVDGWVCA (linker 2-6-14 via TATA) [61-30-03-N001] | 158 nM
5 | ACTETCIWVDGWVCA (linker 2-6-14 via TATA) [61-30-02-N001] | 193 nM
6 | ACHAHCLWVDGWVCA (linker 2-6-14 via TATA) [61-30-00-N001] | 103 nM
7 | ACGACTWADGWVCA (linker 2-5-13 via TATA) [61-25-00-N001] | 2280 nM
8 | ACGDCIWVDGWVCA (linker 2-5-13 via TATA) [61-25-01-N001] | 26.5 nM
9 | ACLSHCLWVDGWVCA (linker 2-6-14 via TATA) [61-31-00-N001] | 326 nM

Continued, values first:

Row | Ki | Binder
10 | 70.5 nM | ACVDCVWVDGWVCA (linker 2-5-13 via TATA) [61-25-03-N001]
11 | 51 nM | ACGLCIWVDGWVCA (linker 2-5-13 via TATA) [61-26-00-N001]
12 | 30 nM | ACRDCIWVDGWVCA (linker 2-5-13 via TATA) [61-25-02-N001]
13 | 99.5 nM | ACSSECIWVDGWVCA (linker 2-6-14 via TATA) [61-30-01-N001]

What follows are binders tested against T1, human carbonic anhydrase IX (assay: cell-based or functional assay).

Row | Enzyme IC50 | Binder
14 | 939 nM | ACGDCIWVDGWVCA (linker 2-5-13 via TATA) [61-25-01-N001]
15 | 1330 nM | ACSSECIWVDGWVCA (linker 2-6-14 via TATA) [61-30-01-N001]
